Measured values: patent US20250304677A1 (VIB VZW, published 2025)
Substitutions are numbered along the chain they refer to. Names may count otherwise. Blank lines part the entries; values can stand above or below the binder they belong to.

Experiments:
[1] = biological target: T1, human folate receptor beta (FRβ) (human, UniProt P14207 17-230, limits assumed); test: method not named (follows the ELISA of Example 3)
T1 construct: also called hFOLR2; human FOLR2

[2] = biological target: T2, human folate receptor alpha expressed on cells (transfected HEK293T, HeLa, MCF7, MDA-MB-231) (human, UniProt P15328 25-234); test: flow cytometry on HEK293T cells overexpressing human FOLR1, His tag detection, PE MFI, non-linear fit
T2 construct: HEK293T transiently transfected with human FOLR1; also called native human FRα; cell-expressed human FOLR1
Protocol: (§1) Data were normalized and technical replicates were plotted as mean±SD. Data were fitted by non-linear regression and the half-maximal effective concentration ^{∘}EC50) was calculated using GraphPad Prism 9 software. ^{∘}FIG. 1C and FIG. 1D) Binding affinity determination of anti-FOLR1 VHHs for native FOLR1. Mouse ^{∘}FIG. 1C) or human FOLR1 FIG. 1D) was overexpressed on HEK293T cells and binding of the anti-FOLR1 VHHs was assessed using flow cytometry. The mean fluorescence intensity ^{∘}MFI) of the phycoerythrin signal was plotted for each VHH concentration. Data were fitted by non-linear regression using GraphPad Prism 9 software. ^{∘}FIG. 1E) Determination of the competition of representative family members with folic acid ^{∘}FA) using ELISA. Mouse FOLR1 was coated on the plate and was pre-incubated with or without 100 μM FA before adding the VHHs. Data were fitted by non-linear regression using GraphPad Prism 9 software.

[3] = biological target: T3, mouse folate receptor alpha expressed on transfected HEK293T cells (mouse, UniProt P35846 25-232); test: flow cytometry on HEK293T cells overexpressing mouse FOLR1, His tag detection, PE MFI, non-linear fit
T3 construct: also called cell-expressed mouse FRα
Protocol: as §1

[4] = biological target: T4, mouse folate receptor alpha (mFRα), recombinant protein (mouse, UniProt P35846 25-232); test: ELISA on recombinant mouse FOLR1, cMyc tag detection, normalised binding, non-linear fit
T4 construct: Bought recombinant proteins (e.g. biotinylated, Acro Biosystems FO1-M82E9); also called mFOLR1; Ms FOLR1
Protocol: as §1
(§2) In a first step, binding affinity and cross-reactivity of the purified VHHs to human and mouse FRα was assessed by ELISA, using detection of the cMyc tag ^{∘}FIG. 1A-B). […] 2HFO19 ^{∘}family 1) was the best binder of all tested VHHs to both mouse and human FRα with an EC₅₀ of 0.1 nM and 0.4 nM respectively ^{∘}FIG. 1A-B).

[5] = biological target: T5, human folate receptor alpha (hFRα), recombinant protein (human, UniProt P15328 25-233); test: BLI, periplasmic extract, FRα on AR2G biosensors
T5 construct: Bought recombinant proteins (His-tagged, or biotinylated via Avi-tag, e.g. AcroBiosystems FO1-H82E2, F01-H52H1); also called hFOLR1; huFOLR1
Protocol: (§3) After panning of core76/77 on human and mouse folate receptor alpha ^{∘}FRα), […] were randomly selected from the second and third rounds and analyzed by ELISA on both human and mouse FRα for the presence of FRα-specific VHHs in their periplasmic extracts ^{∘}PE). This led to the identification of 98 hits. For these 98 hits, the off-rate ^{∘}koff) in the PE was determined by biolayer interferometry ^{∘}BLI) on both mouse and human FRα that was directly immobilized onto AR2G biosensors. The off-rates were calculated using a 1:1 binding model. […] Abbreviations: SE: standard error.

[6] = biological target: T4, mouse folate receptor alpha (mFRα), …; test: BLI, periplasmic extract, FRα on AR2G biosensors
Protocol: as §3

[7] = biological target: T5, human folate receptor alpha (hFRα), …; test: BLI, FRα on AR2G biosensors, 1:1 model
Protocol: (§4) As a next step, the kinetic binding constants were determined using BLI ^{∘}Table 3). […] Similar to the ELISA results ^{∘}FIG. 1A-B), higher binding affinities were measured for mouse FRα than human FRα, with KD values […] one order of magnitude in most cases. […] For 3HFO28, binding to human FRα could not be confirmed by BLI, and this VHH was excluded from further characterization.
(§5) The kinetic parameters were calculated using a 1:1 binding model.

[8] = biological target: T4, mouse folate receptor alpha (mFRα), …; test: BLI, FRα on AR2G biosensors, 1:1 model
Protocol: as §4, §5

[9] = biological target: T5, human folate receptor alpha (hFRα), …; test: ELISA, periplasmic extract
Description: (§6) From the lymphocytes of each llama a separate VHH library was constructed to select and screen for the presence of antigen-specific VHHs. To this end, total RNA from peripheral blood lymphocytes was used as template for first strand cDNA synthesis with an oligo ^{∘}dT) primer. Using this cDNA, the VHH encoding sequences were amplified by PCR, digested with PstI and NotI, cloned into the PstI and NotI sites of the phagemid vector pMECS and transformed into E. coli to generate VHH libraries. To enrich these libraries for FRα ^{∘}or FOLR1, as used interchangeably herein)-specific VHHs, a combinatorial panning approach on recombinant human and mouse FOLR1 was used followed by random selection and screening of clones by ELISA for the presence of antigen-specific VHHs in their periplasmic extracts ^{∘}PEs). In order to gauge the cross-reactivity for human and mouse FOLR1, each clone was tested on both antigens.
as §3

[10] = biological target: T4, mouse folate receptor alpha (mFRα), …; test: ELISA, periplasmic extract
Description: as §6, §3

[11] = biological target: T5, human folate receptor alpha (hFRα), …; test: ELISA on recombinant human FOLR1, cMyc tag detection, normalised binding, non-linear fit
Protocol: as §1, §2

[12] = biological target: T5, human folate receptor alpha (hFRα), …; test: BLI, Avi-biotinylated FRα on streptavidin biosensors, VHH 100 nM
Protocol: (§7) The binding of humanized variants of 2HFO42 was assessed by kinetic binding analysis to mouse and human FRα protein, biotinylated via an Avi-tag, captured on streptavidin biosensors by biolayer interferometry ^{∘}BLI), essentially as described earlier. VHHs were analysed at 100 nM concentration, and off-rates were determined using fitting of 1:1 langmurian interaction. Dissociation constants were compared to 2HFO42^{∘}Q1E, Q5V, Q108L) ^{∘}P101500004) and 2MFR67 ^{∘}Q1E, Q5V, Q108L) ^{∘}P0150000), respectively.

[13] = biological target: T4, mouse folate receptor alpha (mFRα), …; test: as above
Protocol: as §7

[14] = biological target: T5, human folate receptor alpha (hFRα), …; test: ITC, VHH injected into 6.5 µM glycosylated human FOLR1 in PBS, room temperature, single binding site model
Description: (§8) To exclude the presence of a potential additional binding site mediated by the CDR4 region, we determined the stoichiometry if the humanized variant h1 2HFO42 (P01500001) and h1 2MFR67 (P01500005) interaction with human FOLR1 in isothermal titration […] (ITC) studies, using glycosylated human FOLR protein (AcroBiosystems Cat. Nr F01-H52H1). All proteins were dialysed overnight to PBS buffer and concentrated using Amicon Ultra 10 kDa cut-off centrifugal filter devices. Human FOLR1 was used at a concentration of 6.5 μM in the cell. Titrations comprised 26×1.5 μL injections of VHH into the protein, with 90 s intervals. An initial injection of ligand (0.4 μL) was made and discarded during data analysis. All data were performed at room temperature. The data were fitted to a single binding site model using the PEAQ ITC analysis software provided by the manufacturer.

[15] = biological target: T5, human folate receptor alpha (hFRα), …; test: competition AlphaLISA against 2MFR67-Flag3-His6 on human FRα
Protocol: Secondly, the variants were analysed for the capacity to compete with binding of family 3 VHH 2MFR67 to human FRα in a competition AlphaLISA, which is a homogeneous assay without wash steps. In here, human FRα biotinylated through an Avi-tag ^{∘}FO1-H82E2, AcroBiosystems) is captured on streptavidin coated Alpha Donor beads ^{∘}Perkin Elmer, Cat nr. 6760002), while the 2MFR67 is captured on anti-Flag antibody AlphaLISA acceptor beads ^{∘}Perkin Elmer, Cat nr. AL112C). Binding of 2MFR67 to the FRα leads to an energy transfer from one bead to the other, ultimately producing a fluorescent signal. To each well of white low binding 384-well microtitre plates ^{∘}F-bottom, Greiner Cat nr 781904), 5 μl of serial-diluted VHHs are mixed with 5 μl of 2.5 nM monovalent 2MFR67-Flag3-His6 and 5 μl of 15 nM biotinylated human FRα protein. After an incubation for 1 hour at room temperature, streptavidin coated Alpha Donor beads and anti-Flag AlphaLISA acceptor beads were added to a final concentration of 20 μg/mL each in a final volume of 25 μl for an incubation of 1 hour at room temperature in the dark. Interaction between beads was assessed after illumination at 680 nm and reading at 615 nm of on an Ensight instrument. Curve fitting is done in Graphpad Prism 9.0 using 4PL non-linear regression analysis.

[16] = biological target: T4, mouse folate receptor alpha (mFRα), …; test: ELISA on mouse FRα, anti-VHH detection
In short: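 The EC50 was obtained from a dose-response curve. That curve came from an ELISA measuring dose-dependent binding of VHH molecules to mouse folate receptor alpha, with detection by anti-VHH.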

[17] = biological target: T5, human folate receptor alpha (hFRα), …; test: ITC, VHH injected into 6.5 µM glycosylated human FOLR1
Description: as §8
Similarly, a stoichiometry of 1:1 was determined for the 2MFR67-FOLR1 interaction. When comparing the thermodynamic parameters, binding of 2MFR67 to FOLR1 comes with an entropic penalty, whereas the entropic contribution for humanised 2HFO42-FOLR1 binding is favorable. This could be a consequence of the CDR4 loop having more freedom in 2MFR67, resulting in an entropic penalty upon binding. […]

T5 sequence (P15328 25-233 limits assumed): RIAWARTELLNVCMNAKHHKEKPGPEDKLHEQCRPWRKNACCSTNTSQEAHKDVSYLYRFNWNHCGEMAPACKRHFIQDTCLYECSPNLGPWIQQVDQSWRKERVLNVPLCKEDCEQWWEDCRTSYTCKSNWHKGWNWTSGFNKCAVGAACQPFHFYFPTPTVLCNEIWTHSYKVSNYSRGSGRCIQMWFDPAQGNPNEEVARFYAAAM
T4 sequence (P35846 25-232 limits assumed): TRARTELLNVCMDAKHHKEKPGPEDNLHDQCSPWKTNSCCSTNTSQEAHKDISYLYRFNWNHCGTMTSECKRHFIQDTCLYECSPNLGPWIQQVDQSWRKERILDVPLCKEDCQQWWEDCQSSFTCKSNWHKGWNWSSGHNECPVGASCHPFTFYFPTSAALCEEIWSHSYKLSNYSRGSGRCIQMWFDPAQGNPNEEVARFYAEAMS
T2 sequence (P15328 25-234 limits assumed): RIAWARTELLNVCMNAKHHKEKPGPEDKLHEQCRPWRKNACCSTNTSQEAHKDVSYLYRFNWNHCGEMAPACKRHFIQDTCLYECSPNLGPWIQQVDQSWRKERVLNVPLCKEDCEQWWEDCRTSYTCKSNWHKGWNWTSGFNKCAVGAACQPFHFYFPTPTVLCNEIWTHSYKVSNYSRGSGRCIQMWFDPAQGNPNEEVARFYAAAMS
T1 sequence (P14207 17-230 limits assumed): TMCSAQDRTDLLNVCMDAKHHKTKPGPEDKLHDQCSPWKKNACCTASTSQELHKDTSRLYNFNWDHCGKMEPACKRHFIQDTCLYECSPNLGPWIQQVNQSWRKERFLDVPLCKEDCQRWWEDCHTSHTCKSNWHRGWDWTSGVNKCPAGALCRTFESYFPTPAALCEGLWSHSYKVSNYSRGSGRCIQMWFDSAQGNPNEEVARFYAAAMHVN
T3 sequence (P35846 25-232 limits assumed): as the sequence (P35846 25-232 limits assumed) above

binding result [1]: no binding | EC50 [2]: 20.2 nM | EC50 [3]: 1.5 nM | EC50 [4]: 0.6 nM | koff [5]: 0.108 s⁻¹ | koff [6]: 0.0542 s⁻¹ | Kd [7]: 70.9 nM | koff [7]: 0.0849 s⁻¹ | kon [7]: 1.2e+06 M⁻¹ s⁻¹ | Kd [8]: 16.7 nM | koff [8]: 0.0527 s⁻¹ | kon [8]: 3.15e+06 M⁻¹ s⁻¹ | PE-ELISA (ratio to uncoated well) [9]: 12.4 | PE-ELISA (ratio to uncoated well) [10]: 14.1 | EC50 [11]: 11.6 nM
B1: VHH 2MFR7 (family 1) (VHH)
VHH: QVQLQESGGGLVQPGGSLRLSCAASGFPFSTYYMSWVRQAPGKGLEWVSGINSNGGVIDYADSVKGRFTISRDNAKNTLYLQLNSLKPEDTALYFCARGRAFVATMPSSLRGQGTQVTVSS
notes: also called 2MFRO7

binding result [1]: no binding | EC50 [2]: 7 nM | EC50 [3]: 1.4 nM | EC50 [4]: 0.3 nM | koff [5]: 0.0582 s⁻¹ | koff [6]: 0.0135 s⁻¹ | Kd [7]: 662 nM | koff [7]: 0.182 s⁻¹ | kon [7]: 275000 M⁻¹ s⁻¹ | Kd [8]: 7.86 nM | koff [8]: 0.0197 s⁻¹ | kon [8]: 2.5e+06 M⁻¹ s⁻¹ | PE-ELISA (ratio to uncoated well) [9]: 4.8 | PE-ELISA (ratio to uncoated well) [10]: 4.9 | EC50 [11]: 20.3 nM
B2: VHH 3HFO26 (family 1) (VHH)
VHH: B1 VHH with L20I, S21T, A23V

koff [12]: 0.011 s⁻¹ | koff [13]: 0.00126 s⁻¹ | -TΔS [14]: -3.04 kcal/mol | Kd [14]: 39.2 nM | ΔG [14]: -10.1 kcal/mol | ΔH [14]: -7.07 kcal/mol | IC50 [15]: 37.3 nM | EC50 (read off the curve) [16]: ~4 nM | stoichiometry (ITC) [17]: 1
B3: P01500001 = humanised variant 1 (h1) 2HFO42-His6: 2HF042(Q1E, Q5V, A14P, V40A, L79Y, K83R, Q108L)-HIS6 (VHH)
VHH: EVQLVESGGGLVQPGGSLRLSCAASGSGFSGMIMGWYRQAPGKQRELVATVTSHGTTNYADSVKGRFTISRDNAKNTVYLQMNSLRPEDTAVYYCNAHFPGIYWGKGTLVTVSS
notes: Entry includes the tag; also called P0150001; humanised 2HFO42

koff [12]: 0.00353 s⁻¹ | koff [13]: 0.000532 s⁻¹ | -TΔS [14]: 3.57 kcal/mol | Kd [14]: 18.2 nM | ΔG [14]: -10.6 kcal/mol | ΔH [14]: -14.1 kcal/mol | IC50 [15]: 5.53 nM | EC50 (read off the curve) [16]: ~3 nM | stoichiometry (ITC) [17]: 1
B4: P01500005: 2MFR67(Q1E, Q5V, Q108L)-HIS6 (VHH)
VHH: B3 VHH with P14A, D72E, N73D, A74S, Y79L, R86K
notes: Entry includes the tag; also called 2MFR67 (P01500005); P0150005
